Measurements reported in publication PMC10654636.

Key:
Assay in all cases: BLI; biotinylated recombinant human FcγR loaded on SAX (streptavidin) biosensors, antibody in serial dilutions in solution; kinetic buffer 1% casein, 0.2% Tween20, 1x PBS pH 7.4; 30°C; Octet HTX; global fit, 1:1 Langmuir model
[1] = target: human FcγRI (CD64), biotinylated recombinant protein (human) (UniProt P12314)
[2] = target: human FcγRIIa R131 (CD32a R131), biotinylated recombinant protein (human)
[3] = target: human FcγRIIIa V158 (CD16 V158), biotinylated recombinant protein (human)
[4] = target: human FcγRIIb (CD32b), biotinylated recombinant protein (human) (UniProt P31994)
[5] = target: human FcγRIIa H131 (CD32a H131), biotinylated recombinant protein (human) (UniProt P12318)
[6] = target: human FcγRIIIa F158 (CD16 F158), biotinylated recombinant protein (human) (UniProt P08637)

nonfucosylated anti-TIGIT mAb, human IgG1 (SEA-TGT) (antibody; other documents disagree on this pair), sequence (VH): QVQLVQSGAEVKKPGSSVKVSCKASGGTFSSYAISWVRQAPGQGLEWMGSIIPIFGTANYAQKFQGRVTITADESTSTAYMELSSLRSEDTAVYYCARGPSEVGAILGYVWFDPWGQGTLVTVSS
nonfucosylated anti-TIGIT mAb, human IgG1 (SEA-TGT) (antibody; other documents disagree on this pair), sequence (VL): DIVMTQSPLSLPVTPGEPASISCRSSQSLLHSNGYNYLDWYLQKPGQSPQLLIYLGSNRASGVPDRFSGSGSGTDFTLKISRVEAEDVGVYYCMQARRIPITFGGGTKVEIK
nonfucosylated anti-TIGIT mAb, human IgG1 (SEA-TGT) (antibody), sequence (VH): as the sequence (VH) above
nonfucosylated anti-TIGIT mAb, human IgG1 (SEA-TGT) (antibody), sequence (VL): as the sequence (VL) above

Substance	Kd [1]	Kd [2]	Kd [3]	Kd [4]	Kd [5]	Kd [6]
Fc-muted anti-TIGIT mAb, human IgG1 L234A/L235A/P329G (LALA-TGT) (antibody; other documents disagree on this pair)	25500 nM					
anti-TIGIT mAb, human IgG1 S239D/A330L/I332E (DLE-TGT) (antibody)		1560 nM	60 nM			
anti-TIGIT mAb, human IgG1 S239D/A330L/I332E (DLE-TGT) (antibody; other documents disagree on this pair)				3130 nM	1620 nM	
nonfucosylated anti-TIGIT mAb, human IgG1 (SEA-TGT) (antibody)		3640 nM	90 nM			
nonfucosylated anti-TIGIT mAb, human IgG1 (SEA-TGT) (antibody; other documents disagree on this pair)	1.9 nM			19100 nM	3220 nM	490 nM
